The DeepSol protein solubility set

Test: soluble on expression in E. coli; label from the status in PepcDB or PDB records

Row | Sequence | soluble on expression in E. coli
1 | MAHHHHHHMRVLSGVELEAVNRVVEHLRCHPEDLHRNEFRELREYMASLGASIPPPPDTPDVSGVRKEANSDDEEEYVSEPDSQRCALEPVSDDDITAYDGTDPTPEDEERAMGLKAQAAELAADGDFDKAIELMGQALRIVPGKAMYWAQRASYFLKCTQPGAALQDANRALDLNPENVRALRVRGTVNRRLGKWEEALKDLSEAQAVDYDEGIDEILRFVQKRTNDRRQFQQRKKEAQRLRQEALRRQREHELREEEMKREQQQQRDQQQSGAGDFPGGAGGFPGGFPGGAGGGGMQSFMESLFQDQELAEAMKDPEVAAKLATLRSNPMAALQMMGDPKVGPLIQKMMSKAMGGSSPGSSPFGAGASAGATSHADAHHSDELD | soluble
2 | MAHHHHHHMSARMQFPLSQRRHTNIAVVRYSKNGVKLEIACYKNKVISYRSGTENRLDEVLQVERIFANVARGYLASEKEIQTVFGGEMTEAEAIRYMLDHGELQVAQQERAAEVDEMFKDIAVIISQKCINTKTQRPFPPQVVEQALRSIGAAVKLDQSVKKQALGLIHLLIDSDILPIARANMKIRCTTTSEAALEKLRGWCRDNDADVVSDSVTGKTSDGGSGNFGHALLLLMQPNLFRDLDHFVKEALPSGSTIHMVEAAVTEVGDSDVLLDANAVSLANAQPGRAEEEATMAGSRRAAAAPSSSSAGEVNRGCSDGRGGETGMSSNLGQGADNASNGQHQSDGEGKRGRTGKAKGTTRRGHRGRQSNNSDGDDLLDGSTDGAAEGGLGVDHDIAAGLQRLGLDPSHDLQDDSDDDGGRGRGSRGKKKKNASGTGGGPYQSQGAGGRKAGGGAAAVDDDDNAGKGKKGRKNAKSKKVAAAEKAKPGAEGAFSDSDEELMGNRKQRAKKQQETRMQQGGNDWHEEDFDYGEDEEAEVQLS | soluble
3 | MAHHHHHHMSDTRDVAQPRRGSFASRKARGETGGSKSSSSSSKNKEHSYDARRYHQNANTHGIHALRTFDCPVCDSKNTIRVTLNPRLGEGTVSCTYCCSLRPAPPDLPYPSVQRFVPSLENRADVFFRFNEQYAALLRQHKSERVGESVDPSSCLATVDNTRKRANKDDGESGGRARGPRGESRDEDGLFGDCALHMDTGLFDNAVDQHVTGTLAMLGSDDDGGSNTVADADPGNPKGVSTPSPPRPDGADMPESDFMNVAVIAGVDEAFAAHAADGVDGMGEADAEEVDVAAFFADSD | not soluble
4 | MAHHHHHHMSFLPIRVCVLVCSYEGSDSELKEYEGEIVQTPQHYFTEEDSKEFVFTLEFVKKATAYRQIRQLVKSGAFDVFYNQCDGAIDEDKAGVEVVQALESFKVPFTGAISKYYELSKPEMKRMAHYCAVKTAPYAVLEAGDNVRELCAALHFPLIVKHISGYSSVGMDKSCKVYDMDALKERVARFIDQYQSALVEEFISGDEATVLVCADASQPGGIRVFPPVMVQFPEGEDFKHFHLKWETYEGMIWRLVSEDDPALPDIIHIARTAFLHMMGGVGYGRVDVRIDREKNTVVFLEINPNCGIMYPYGQEGSADWILRLTPEFKQKEFAKLQISEAIRIHKCKQPLFRCAYDPVREYYICATRDIPAGSIIFEGEGRLVRLCTKPYVKANWSEVEYNEFLHDAWPVGAEGHYYALWDLESSDWRAVNHSCDPNMGFCPNRSLNVHALRDIAKGEELTMDCRLFMDDTMPPFQCHCKTSICAGWIRGGVMRESHFFESYTERLIHREDKFITQLTRN | not soluble
5 | MAHHHHHHMSGEVDFWSATIAAYQPLQLTSPELTPKLLKRPPFRFIHDIVCSIDARFAAYDHIIPAELRDSAQVDTKEKKIEYLTTLIQYINRIMKVEIDVNPKKIVSGNEPEKTNIFLQYLAAGVGYAQQDKAAQATPAPQQKSAASLASPASPAAASFSTNPAQDNLSLSLASGLCRKKSSSRDPAERRRSHVSVFDEAAKFNRKLSGYSLNLNLDEQRDVRSEGQSIVRMWNELANPQTETKPSHMPQEALETAIKRQIETVKMVQELLSENDRVIDKLEALVI | not soluble
6 | MAHHHHHHMSGSVNRSNSFQKADSMDAKETSTVDRKWVALTAYQPVDVVTKTVEVPVIKTVEKFVPKTIIQEKIIHVPKNVTHIVEKIVEVPEVKYIEKIVEVPHIHYKNKYVPKIEVVEKVVERQKIIEKWHDKIVEVPQIKEVVRFKEIEDAEEVIKYIPRNSKNINWEEEYQKYTQRKGQERYSLDNNAYQQKMSSYNDYNEKAYSQNAYSRSLDFMNKQSSSLNNQSNIRSEDFSQINFFNQYIGSAGASYDKQRNSVPTSSFDARGSLQLKRMPSEEAKPVGCCTSACT | not soluble
